The values that follow come from article PMC9399855 (2022).

The target of assay [1] is T1, hybrid insulin peptide 6.3HIP: insulin B-chain B13-19 joined to ProSAAS 219-225 peptide on I-Ag7 (mouse).
T1 peptide: EALYLVCSVDQDLG
The assay can be described thus: cytokine release.

Assay [2] concerns the target T2, 6.3HIP 2-14 (N-terminal truncation of the 6.3HIP) peptide on I-Ag7 (mouse).
T2 peptide: ALYLVCSVDQDLG
The assay can be described thus: cytokine release.

Assay [3] has as its target T3, 6.3HIP -1-14 (6.3HIP with a valine added at the N-terminus); RESTORED: the article prints …, which lacks the … (mouse).
T3 peptide: VEALYLVCSVDQDLG
Briefly: cytokine release.

Assay [4] deals with T4, 6.3HIP 10D>R (mutant of B13-19/ProSAAS 219-225) peptide on I-Ag7 (mouse).
T4 peptide: EALYLVCSVRQDLG
The assay can be described thus: cytokine release.

The target of assay [5] is T5, 6.3HIP 12D>R (mutant of B13-19/ProSAAS 219-225) peptide on I-Ag7 (mouse).
T5 peptide: EALYLVCSVDQRLG
Briefly: cytokine release.

Assay [6] addresses T6, 6.3HIP 1-11: insulin B-chain B13-19 joined to ProSAAS 219-222 peptide on I-Ag7 (mouse).
T6 peptide: EALYLVCSVDQ
The assay can be described thus: multimer staining.

B1: PD12-4.4 (TCR)
alpha TRAV5D-4 TRAJ53 CDR3: CAASASGGSNYKLTF
beta TRBV5 CDR3: CASSQDTNTGQLYF
Turning to B1, the binding result in assay [1] is recorded as “recognises”; in assay [2], “no recognition”; in assay [3], “recognises”; in assay [4], “no recognition”; in assay [5], “recognises”; in assay [6], “recognises”.
